According to publication PMC10465574, “Chlorfenapyr metabolism by mosquito P450s associated with pyrethroid resistance identifies potential activation markers” (Scientific Reports, 2023):

T1: CYP9K1 (Anopheles gambiae, UniProt Q8T633)
T1 construct: recombinant, pCWori+ vector, E. coli membranes co-expressing An. gambiae CPR; cytochrome b5 added; with NADPH--cytochrome P450 reductase
T1 sequence (Q8T633 1-531): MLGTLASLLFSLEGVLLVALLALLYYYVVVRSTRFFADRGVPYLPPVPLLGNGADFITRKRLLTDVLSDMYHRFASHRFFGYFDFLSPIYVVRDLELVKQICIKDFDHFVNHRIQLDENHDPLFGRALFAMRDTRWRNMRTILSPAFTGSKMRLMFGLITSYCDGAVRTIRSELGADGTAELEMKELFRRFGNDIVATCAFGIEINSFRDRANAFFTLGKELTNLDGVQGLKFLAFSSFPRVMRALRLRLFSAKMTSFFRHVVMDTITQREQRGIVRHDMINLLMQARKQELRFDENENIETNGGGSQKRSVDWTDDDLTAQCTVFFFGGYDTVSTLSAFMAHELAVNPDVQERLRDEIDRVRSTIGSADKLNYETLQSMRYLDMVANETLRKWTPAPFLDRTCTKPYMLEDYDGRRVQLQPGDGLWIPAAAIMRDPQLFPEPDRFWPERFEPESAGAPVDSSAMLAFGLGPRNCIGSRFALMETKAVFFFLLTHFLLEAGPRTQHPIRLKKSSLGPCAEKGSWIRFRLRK
T1 sequence (Q86QH5 1-679 partner): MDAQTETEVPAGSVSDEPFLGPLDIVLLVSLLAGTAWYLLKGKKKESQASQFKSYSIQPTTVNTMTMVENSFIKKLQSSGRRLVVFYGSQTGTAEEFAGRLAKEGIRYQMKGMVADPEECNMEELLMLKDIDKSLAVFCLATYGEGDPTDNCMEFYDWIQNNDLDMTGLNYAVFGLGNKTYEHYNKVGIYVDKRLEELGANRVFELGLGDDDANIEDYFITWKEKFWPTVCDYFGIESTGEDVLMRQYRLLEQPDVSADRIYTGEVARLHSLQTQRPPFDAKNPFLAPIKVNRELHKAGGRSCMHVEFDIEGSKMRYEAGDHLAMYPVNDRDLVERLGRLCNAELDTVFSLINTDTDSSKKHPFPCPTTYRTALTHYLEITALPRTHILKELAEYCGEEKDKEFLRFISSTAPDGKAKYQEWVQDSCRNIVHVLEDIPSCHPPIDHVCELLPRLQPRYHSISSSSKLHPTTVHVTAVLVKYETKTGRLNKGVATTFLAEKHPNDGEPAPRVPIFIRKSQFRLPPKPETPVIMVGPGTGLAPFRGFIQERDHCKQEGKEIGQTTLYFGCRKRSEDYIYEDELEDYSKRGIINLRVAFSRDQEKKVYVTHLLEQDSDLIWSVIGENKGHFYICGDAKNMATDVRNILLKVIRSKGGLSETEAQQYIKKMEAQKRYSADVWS

T2: CYP6P3 (Anopheles gambiae, UniProt Q8T632)
T2 construct: recombinant, pCWori+ vector, E. coli membranes co-expressing An. gambiae CPR; cytochrome b5 added in metabolism assays; with NADPH--cytochrome P450 reductase
T2 sequence (Q8T632 1-509): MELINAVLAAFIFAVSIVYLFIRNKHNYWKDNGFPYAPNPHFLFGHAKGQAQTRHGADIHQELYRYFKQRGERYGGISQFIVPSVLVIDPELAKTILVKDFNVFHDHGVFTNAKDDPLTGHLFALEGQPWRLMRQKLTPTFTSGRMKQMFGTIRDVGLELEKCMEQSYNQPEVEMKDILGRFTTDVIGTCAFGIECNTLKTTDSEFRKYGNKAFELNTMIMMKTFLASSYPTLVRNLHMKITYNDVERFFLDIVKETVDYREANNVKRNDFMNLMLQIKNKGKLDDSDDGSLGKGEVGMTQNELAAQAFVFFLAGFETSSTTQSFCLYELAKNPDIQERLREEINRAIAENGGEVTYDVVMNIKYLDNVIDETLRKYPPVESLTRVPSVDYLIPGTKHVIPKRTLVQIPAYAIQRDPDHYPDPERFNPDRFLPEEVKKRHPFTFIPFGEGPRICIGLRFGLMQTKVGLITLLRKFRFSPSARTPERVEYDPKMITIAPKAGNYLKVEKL
T2 sequence (Q86QH5 1-679 partner): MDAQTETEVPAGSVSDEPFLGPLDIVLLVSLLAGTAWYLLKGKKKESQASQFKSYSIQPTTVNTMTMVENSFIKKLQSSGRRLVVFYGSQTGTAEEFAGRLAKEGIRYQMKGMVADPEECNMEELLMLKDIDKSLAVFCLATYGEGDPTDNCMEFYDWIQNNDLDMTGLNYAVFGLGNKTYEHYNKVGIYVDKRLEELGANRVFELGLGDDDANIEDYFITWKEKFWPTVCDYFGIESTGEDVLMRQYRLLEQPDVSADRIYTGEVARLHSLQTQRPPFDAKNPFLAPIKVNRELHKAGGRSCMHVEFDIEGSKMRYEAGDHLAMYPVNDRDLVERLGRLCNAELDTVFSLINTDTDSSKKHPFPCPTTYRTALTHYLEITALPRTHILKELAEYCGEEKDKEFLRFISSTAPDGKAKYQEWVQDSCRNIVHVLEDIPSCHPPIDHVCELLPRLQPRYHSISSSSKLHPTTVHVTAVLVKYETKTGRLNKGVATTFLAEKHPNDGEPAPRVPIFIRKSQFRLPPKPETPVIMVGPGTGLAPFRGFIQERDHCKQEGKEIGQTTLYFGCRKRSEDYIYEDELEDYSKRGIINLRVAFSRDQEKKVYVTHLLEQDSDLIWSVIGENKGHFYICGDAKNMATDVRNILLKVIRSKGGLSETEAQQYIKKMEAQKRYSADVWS


Legend:
[1] = biological target: T1, CYP9K1; test: inhibition of chlorfenapyr depletion, HPLC; format: biochemical
[2] = biological target: T2, CYP6P3; test: inhibition of diethoxyfluorescein (DEF) fluorescent probe metabolism; format: biochemical
[3] = substrate: CCOCn1c(-c2ccc(Cl)cc2)c(C#N)c(Br)c1C(F)(F)F; test: tralopyril formation by HPLC, Michaelis-Menten fit; format: biochemical, Anopheles gambiae; conditions: NADPH regeneration system, 0.8 µM cytochrome b5, 50 mM potassium phosphate pH 7.4, recombinant E. coli membranes

| Molecule | inhibition at 10 µM [1] | IC50 [2] | Km [3] | kcat [3] |
| --- | --- | --- | --- | --- |
| CC1(C)C(C=C(Cl)Cl)C1C(=O)OC(C#N)c1cccc(Oc2ccccc2)c1 (stereo not drawn) [α-cypermethrin] | 56.8% | 16.7 µM | – | – |
| CCOCn1c(-c2ccc(Cl)cc2)c(C#N)c(Br)c1C(F)(F)F [chlorfenapyr] | – | 30.4 µM | – | – |
| CYP9K1 (Anopheles gambiae) (protein, recombinant, pCWori+ vector, E. coli membranes co-expressing An. gambiae CPR; cytochrome b5 added; with NADPH--cytochrome P450 reductase) MLGTLASLLFSLEGVLLVALLALLYYYVVVRSTRFFADRGVPYLPPVPLLGNGADFITRKRLLTDVLSDMYHRFASHRFFGYFDFLSPIYVVRDLELVKQICIKDFDHFVNHRIQLDENHDPLFGRALFAMRDTRWRNMRTILSPAFTGSKMRLMFGLITSYCDGAVRTIRSELGADGTAELEMKELFRRFGNDIVATCAFGIEINSFRDRANAFFTLGKELTNLDGVQGLKFLAFSSFPRVMRALRLRLFSAKMTSFFRHVVMDTITQREQRGIVRHDMINLLMQARKQELRFDENENIETNGGGSQKRSVDWTDDDLTAQCTVFFFGGYDTVSTLSAFMAHELAVNPDVQERLRDEIDRVRSTIGSADKLNYETLQSMRYLDMVANETLRKWTPAPFLDRTCTKPYMLEDYDGRRVQLQPGDGLWIPAAAIMRDPQLFPEPDRFWPERFEPESAGAPVDSSAMLAFGLGPRNCIGSRFALMETKAVFFFLLTHFLLEAGPRTQHPIRLKKSSLGPCAEKGSWIRFRLRK | – | – | 10.13 µM | 0.112 s⁻¹ |
| CYP6P3 (Anopheles gambiae) (protein, recombinant, pCWori+ vector, E. coli membranes co-expressing An. gambiae CPR; cytochrome b5 added in metabolism assays; with NADPH--cytochrome P450 reductase) MELINAVLAAFIFAVSIVYLFIRNKHNYWKDNGFPYAPNPHFLFGHAKGQAQTRHGADIHQELYRYFKQRGERYGGISQFIVPSVLVIDPELAKTILVKDFNVFHDHGVFTNAKDDPLTGHLFALEGQPWRLMRQKLTPTFTSGRMKQMFGTIRDVGLELEKCMEQSYNQPEVEMKDILGRFTTDVIGTCAFGIECNTLKTTDSEFRKYGNKAFELNTMIMMKTFLASSYPTLVRNLHMKITYNDVERFFLDIVKETVDYREANNVKRNDFMNLMLQIKNKGKLDDSDDGSLGKGEVGMTQNELAAQAFVFFLAGFETSSTTQSFCLYELAKNPDIQERLREEINRAIAENGGEVTYDVVMNIKYLDNVIDETLRKYPPVESLTRVPSVDYLIPGTKHVIPKRTLVQIPAYAIQRDPDHYPDPERFNPDRFLPEEVKKRHPFTFIPFGEGPRICIGLRFGLMQTKVGLITLLRKFRFSPSARTPERVEYDPKMITIAPKAGNYLKVEKL | – | – | 16.32 µM | 0.0285 s⁻¹ |
